Laboratory results as given in PMC9452783, “PLK1-mediated phosphorylation of PPIL2 regulates HR via CtIP” (Frontiers in Cell and Developmental Biology, 2022).

B1: His-PPIL2 241-520 (E. coli, purified) (domain or fragment, UniProt Q13356 241-520, looked up)
chain: YSTGKVSASFTSTAMVPETTHEAAAIDEDVLRYQFVKKKGYVRLHTNKGDLNLELHCDLTPKTCENFIRLCKKHYYDGTIFHRSIRNFVIQGGDPTGTGTGGESYWGKPFKDEFRPNLSHTGRGILSMANSGPNSNRSQFFITFRSCAYLDKKHTIFGRVVGGFDVLTAMENVESDPKTDRPKEEIRIDATTVFVDPYEEADAQIAQERKTQLKVAPETKVKSSQPQAGSQGPQTFRQGVGKYINPAATKRAAEEEPSTSATVPMSKKKPSRGFGDFSSW
notes: source: E. coli BL21, purified (Ni-NTA)
B2: GST-ZNF830 151-372 (E. coli, purified) (domain or fragment, UniProt Q96NB3 151-372, looked up)
chain: SGLSLLPDYEDEEEEEEEEEGDGERKRGDASKPLSDAQGKEHSVSSSREVTSSVLPNDFFSTNPPKAPIIPHSGSIEKAEIHEKVVERRENTAEALPEGFFDDPEVDARVRKVDAPKDQMDKEWDEFQKAMRQVNTISEAIVAEEDEEGRLDRQIGEIDEQIECYRRVEKLRNRQDEIKNKLKEILTIKELQKKEEENADSDDEGELQDLLSQDWRVKGALL
notes: source: E. coli BL21, purified (glutathione-Sepharose 4B)

Columns and labels:
[1] = molecular target: T1, GST-ZNF830 (E. coli, purified) (UniProt Q96NB3 1-372); assay: pull-down; GST pull-down with purified GST-ZNF830 (full length or fragments) and His-PPIL2 (full length or fragments) expressed in E. coli; western blot and Coomassie brilliant blue; settings: both partners purified
T1 construct: ZNF830, full length, GST-tagged (pGEX6T-1); also called GST-tagged ZNF830; source: E. coli BL21, purified (glutathione-Sepharose 4B)
T1 sequence (looked up): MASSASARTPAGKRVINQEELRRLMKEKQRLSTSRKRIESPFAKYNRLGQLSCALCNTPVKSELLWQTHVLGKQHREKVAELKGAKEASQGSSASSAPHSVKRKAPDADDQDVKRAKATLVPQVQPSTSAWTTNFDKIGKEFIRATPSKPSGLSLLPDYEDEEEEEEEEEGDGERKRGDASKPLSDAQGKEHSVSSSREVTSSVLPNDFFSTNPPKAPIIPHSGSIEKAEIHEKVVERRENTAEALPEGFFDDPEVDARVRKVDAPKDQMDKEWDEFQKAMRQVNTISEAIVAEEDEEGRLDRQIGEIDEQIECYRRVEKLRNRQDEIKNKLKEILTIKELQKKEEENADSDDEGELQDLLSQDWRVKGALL

[2] = molecular target: B1; assay: as above; settings: both partners purified

| Binder | binding result [1] | binding result [2] |
| --- | --- | --- |
| B1 | binds | – |
| B2 | – | binds |
